Measured values reported in patent US20190367592A1 (AC IMMUNE, published 2019).
Positions count from the first letter of the chain named.

B1: hu125B11 HC2 + 125B11 LC1 (antibody, V domains shown)
VH: EVQLVESGGGLVQPGGSLRLSCAASRFIFSNYWMNWVRQAPGKGLEWVAQIRLKSDNYATHYAESVKGRFTISRDNSKNTVYLQMNSLRAEDTAVYYCTGGTTYWGQGTLVTVSS
VL: DIQMTQSPSSLSASVGDRVTITCKASQNVGTAVAWYQQKPGKSPKLLIYSASIRYTGVPSRFSGSGSGTDFTLTISSLQPEDFATYFCQQFRTYPYTFGQGTKVEIK
B2: hu125B11 HC3 + 125B11 LC3 (antibody, V domains shown)
VH: B1 VH with N76D, V81L
VL: B1 VL with F87Y
B3: hu125B11 HC3 + 125B11 LC2 (antibody, V domains shown)
VH: B1 VH with N76D, V81L
VL: B1 VL with S43A
B4: hu125B11 HC2 + hu113F5-F7 LC4 (antibody, V domains shown)
VH: B1 VH
VL: B1 VL with S43A, I53R, Y55F, T56S, F87Y, R92S
B5: hu125B11 HC3 + hu113F5-F7 LC3 (antibody, V domains shown)
VH: B1 VH with N76D, V81L
VL: B1 VL with I53R, Y55F, T56S, F87Y, R92S
B6: hu125B11 HC4 + hu113F5-F7 LC1 (antibody, V domains shown)
VH: B1 VH with V81L
VL: B1 VL with I53R, Y55F, T56S, R92S
B7: hu125B11 HC2 + hu113F5-F7 LC3 (antibody, V domains shown)
VH: B1 VH
VL: B1 VL with I53R, Y55F, T56S, F87Y, R92S
B8: hu125B11 HC4 + 125B11 LC1 (antibody, V domains shown)
VH: B1 VH with V81L
VL: B1 VL
B9: hu125B11 HC2 + hu113F5-F7 LC2 (antibody, V domains shown)
VH: B1 VH
VL: B1 VL with S43A, I53R, Y55F, T56S, R92S
B10: hu125B11 HC4 + hu113F5-F7 LC2 (antibody, V domains shown)
VH: B1 VH with V81L
VL: B1 VL with S43A, I53R, Y55F, T56S, R92S
B11: hu125B11 HC3 + hu113F5-F7 LC2 (antibody, V domains shown)
VH: B1 VH with N76D, V81L
VL: B1 VL with S43A, I53R, Y55F, T56S, R92S
B12: hu125B11 HC2 + hu113F5-F7 LC1 (antibody, V domains shown)
VH: B1 VH
VL: B1 VL with I53R, Y55F, T56S, R92S
B13: hu125B11 HC2 + 125B11 LC4 (antibody, V domains shown)
VH: B1 VH
VL: B1 VL with S43A, F87Y
B14: hu125B11 HC3 + 125B11 LC4 (antibody, V domains shown)
VH: B1 VH with N76D, V81L
VL: B1 VL with S43A, F87Y
B15: hu125B11 HC4 + 125B11 LC3 (antibody, V domains shown)
VH: B1 VH with V81L
VL: B1 VL with F87Y
B16: hu125B11 HC3 + hu113F5-F7 LC4 (antibody, V domains shown)
VH: B1 VH with N76D, V81L
VL: B1 VL with S43A, I53R, Y55F, T56S, F87Y, R92S
B17: hu125B11 HC2 + 125B11 LC2 (antibody, V domains shown)
VH: B1 VH
VL: B1 VL with S43A
B18: hu125B11 HC3 + hu113F5-F7 LC1 (antibody, V domains shown)
VH: B1 VH with N76D, V81L
VL: B1 VL with I53R, Y55F, T56S, R92S
B19: hu125B11 HC2 + 125B11 LC3 (antibody, V domains shown)
VH: B1 VH
VL: B1 VL with F87Y

These binders were tested against T1, recombinant human Tau monomer, 2N4R isoform (amino acids 2-441) (human, UniProt P10636-8 2-441) (assay: SPR screen, hIgG captured, Tau monomer analyte).
T1 construct: range 2-441; N-terminal His-tag removed with TEV protease; also called monomeric Tau
T1 sequence (P10636 other isoform, or with tags, fused parts or gaps limits assumed): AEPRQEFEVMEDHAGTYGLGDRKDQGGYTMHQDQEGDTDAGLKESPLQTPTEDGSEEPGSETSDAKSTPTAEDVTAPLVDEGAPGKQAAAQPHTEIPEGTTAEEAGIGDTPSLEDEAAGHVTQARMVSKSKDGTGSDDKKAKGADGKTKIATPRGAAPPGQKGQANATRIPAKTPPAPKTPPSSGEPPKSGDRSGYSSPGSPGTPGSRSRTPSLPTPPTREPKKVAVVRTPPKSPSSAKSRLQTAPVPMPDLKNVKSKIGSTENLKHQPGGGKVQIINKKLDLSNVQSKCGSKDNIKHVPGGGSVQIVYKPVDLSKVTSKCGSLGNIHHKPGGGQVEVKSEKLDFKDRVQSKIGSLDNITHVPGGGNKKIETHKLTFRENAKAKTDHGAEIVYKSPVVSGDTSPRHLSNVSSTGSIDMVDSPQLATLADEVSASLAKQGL
Description: Antibody 125B11-H3 was humanized onto VH3 and Vκ1 consensus frameworks. The heavy chain graft included murine residues at position 78 (Kabat numbering system). The Vκ1 graft included murine residues in framework positions 43 and 87. The light chain of 113F5-F7 was also humanized onto the Vκ1 framework, with additional murine residues at framework positions 43 and 87. Humanized variant heavy chains (125B11) and light chains (125B11 and 113F5-F7) were co-transfected in multiple combinations and purified in 96-well format as described above. Humanized variants were then screened for affinity for human Tau monomer using the Biacore human IgG capture kit, a Series S CM5 chip and a Biacore T200 instrument. Antibodies were diluted to 2 μg/ml and captured for 15 seconds at 10 μl/min. Association and dissociation of 0, 100 and 500 nM human Tau monomer in HBSP was monitored for 180s and 300s respectively at a flow rate of 40 μl/min. A 1:1 binding model was applied to the results (Table 9).
For B1, the Kd was 18 nM.
B2 was tested, and the Kd was 20 nM.
B3 gave a Kd of 19 nM.
B4 was tested, and the Kd was 77 nM.
With B5 the Kd was 54 nM.
For B6, the Kd was 44 nM.
B7 was tested, and the Kd was 64 nM.
In the case of B8, the Kd is reported as 15 nM.
Binder B9 has a Kd of 68 nM.
Binder B10 has a Kd of 47 nM.
B11 gave a Kd of 55 nM.
B12 was tested, and the Kd was 61 nM.
Binder B13 has a Kd of 22 nM.
B14 showed a Kd of 20 nM.
In the case of B15, the Kd is reported as 15 nM.
B16 gave a Kd of 65 nM.
Binder B17 has a Kd of 20 nM.
For B18, the Kd was 54 nM.
Work on B19 yielded a Kd of 23 nM.
